Data as given in the supplement of paper PMC9112550, “Optimization of the antimicrobial peptide Bac7 by deep mutational scanning” (BMC Biology, 2022).

system: Escherichia coli TOP10; assay: shrunken log2 fold change of peptide-encoding DNA abundance (4.5 h post-induction vs induction); higher = less antimicrobial activity (less host growth inhibition); conditions: time post-induction: 4.5 h; library: site-saturation at positions 5, 18, 19, 20
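Also: peptides expressed intracellularly from a pBAD plasmid library in pooled LB shake-flask culture, induced with 0.3% L-arabinose, DNA abundance read by NGS, three biological replicates, DESeq2 with apeglm shrinkage.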

Row | Sequence | shrunken log2 fold change
1 | RRIRARPPRLPRPRPRPMGHPRP | 0.062
2 | RRIRARPPRLPRPRPRPAYKPRP | -0.0413
3 | RRIRVRPPRLPRPRPRPKRLPRP | 0.132
4 | RRIRARPPRLPRPRPRPTCPPRP | 0.444
5 | RRIRMRPPRLPRPRPRPLWMPRP | 0.0202
6 | RRIRVRPPRLPRPRPRPYERPRP | 0.0458
7 | RRIRERPPRLPRPRPRPNIVPRP | -0.232
8 | RRIRWRPPRLPRPRPRPHNRPRP | -0.205
9 | RRIRVRPPRLPRPRPRPPNYPRP | -0.194
10 | RRIRPRPPRLPRPRPRPAPFPRP | 0.143
11 | RRIRDRPPRLPRPRPRPRWAPRP | 0.0236
12 | RRIRERPPRLPRPRPRPMTRPRP | -0.00264
13 | RRIRARPPRLPRPRPRPTIEPRP | 0.225
14 | RRIRWRPPRLPRPRPRPCVPPRP | -0.035
15 | RRIRHRPPRLPRPRPRPQFGPRP | -0.184
16 | RRIRKRPPRLPRPRPRPVEQPRP | 0.12
17 | RRIRQRPPRLPRPRPRPLMAPRP | -0.0462
18 | RRIRCRPPRLPRPRPRPYMNPRP | -0.99
19 | RRIRRRPPRLPRPRPRPQLFPRP | 2.21
20 | RRIRPRPPRLPRPRPRPTRCPRP | 0.279
21 | RRIRKRPPRLPRPRPRPRWIPRP | 0.112
22 | RRIRIRPPRLPRPRPRPVLGPRP | 0.0875
23 | RRIRTRPPRLPRPRPRPCHMPRP | -0.0872

Row | Sequence | shrunken log2 fold change
24 | RRIRDRPPRLPRPRPRPAKQPRP | 0.181
25 | RRIRFRPPRLPRPRPRPSVKPRP | -0.347
26 | RRIRKRPPRLPRPRPRPVANPRP | 0.0525
27 | RRIRQRPPRLPRPRPRPLSHPRP | -0.168
28 | RRIRLRPPRLPRPRPRPCDVPRP | -0.255
29 | RRIRIRPPRLPRPRPRPVDTPRP | -0.282
30 | RRIRFRPPRLPRPRPRPIDPPRP | -0.526
31 | RRIRIRPPRLPRPRPRPYHKPRP | -0.165
32 | RRIRSRPPRLPRPRPRPNRGPRP | 0.0138
33 | RRIRGRPPRLPRPRPRPRKVPRP | 0.741
34 | RRIRCRPPRLPRPRPRPEDYPRP | -0.304
35 | RRIRMRPPRLPRPRPRPQYLPRP | -0.0275
36 | RRIRVRPPRLPRPRPRPNAFPRP | -0.0289
37 | RRIRVRPPRLPRPRPRPTDMPRP | -0.234
38 | RRIRTRPPRLPRPRPRPSSAPRP | -0.172
39 | RRIRMRPPRLPRPRPRPSVQPRP | 0.296
40 | RRIRERPPRLPRPRPRPDTVPRP | 0.37
41 | RRIRIRPPRLPRPRPRPYEQPRP | -0.868
42 | RRIRMRPPRLPRPRPRPEELPRP | 0.123
43 | RRIRQRPPRLPRPRPRPISGPRP | -0.018
44 | RRIRDRPPRLPRPRPRPPNDPRP | 0.14
45 | RRIRIRPPRLPRPRPRPSYKPRP | -1.42
46 | RRIRYRPPRLPRPRPRPHAMPRP | -0.221

Row | Sequence | shrunken log2 fold change
47 | RRIRCRPPRLPRPRPRPKVRPRP | 0.195
48 | RRIRRRPPRLPRPRPRPVDFPRP | 0.178
49 | RRIRMRPPRLPRPRPRPRQMPRP | 0.862
50 | RRIRRRPPRLPRPRPRPGEYPRP | 0.264
51 | RRIRRRPPRLPRPRPRPMWCPRP | 0.135
52 | RRIRYRPPRLPRPRPRPHMHPRP | -0.988
53 | RRIRWRPPRLPRPRPRPYIMPRP | -0.116
54 | RRIRYRPPRLPRPRPRPKGFPRP | -0.0319
55 | RRIRVRPPRLPRPRPRPGKWPRP | -0.141
56 | RRIRRRPPRLPRPRPRPGDIPRP | 0.0886
57 | RRIRHRPPRLPRPRPRPPTMPRP | -0.354
58 | RRIRRRPPRLPRPRPRPPTHPRP | 0.622
59 | RRIRKRPPRLPRPRPRPGEFPRP | 0.242
60 | RRIRQRPPRLPRPRPRPYAVPRP | -0.00389
61 | RRIRKRPPRLPRPRPRPKTYPRP | -0.156
62 | RRIRIRPPRLPRPRPRPESEPRP | -0.0338
63 | RRIRGRPPRLPRPRPRPAANPRP | 0.911
64 | RRIRQRPPRLPRPRPRPKLCPRP | 0.0303
65 | RRIRYRPPRLPRPRPRPLYCPRP | -0.975
66 | RRIRQRPPRLPRPRPRPYRQPRP | 0.00902
67 | RRIRNRPPRLPRPRPRPPSVPRP | 0.0886
68 | RRIRGRPPRLPRPRPRPQPPPRP | 0.998
69 | RRIRVRPPRLPRPRPRPDKDPRP | -0.337

Row | Sequence | shrunken log2 fold change
70 | RRIRFRPPRLPRPRPRPIWNPRP | -0.147
71 | RRIRWRPPRLPRPRPRPLHSPRP | 0.215
72 | RRIRDRPPRLPRPRPRPGNRPRP | -0.0278
73 | RRIRLRPPRLPRPRPRPADKPRP | 0.122
74 | RRIRPRPPRLPRPRPRPPAGPRP | 0.506
75 | RRIRIRPPRLPRPRPRPPGEPRP | 0.0604
76 | RRIRERPPRLPRPRPRPKQGPRP | -0.0514
77 | RRIRGRPPRLPRPRPRPFGGPRP | 0.401
78 | RRIRKRPPRLPRPRPRPALCPRP | 0.146
79 | RRIRKRPPRLPRPRPRPFWWPRP | 0.592
80 | RRIRERPPRLPRPRPRPAICPRP | -0.141
81 | RRIRTRPPRLPRPRPRPNGGPRP | 0.033
82 | RRIRTRPPRLPRPRPRPDQQPRP | -0.0173
83 | RRIRCRPPRLPRPRPRPVSVPRP | -0.0739
84 | RRIRPRPPRLPRPRPRPTDQPRP | 0.399
85 | RRIRERPPRLPRPRPRPKPRPRP | 0.467
86 | RRIRFRPPRLPRPRPRPRQDPRP | 0.253
87 | RRIRFRPPRLPRPRPRPMTMPRP | -0.132
88 | RRIRRRPPRLPRPRPRPVNWPRP | 0.439
89 | RRIRQRPPRLPRPRPRPSLSPRP | -0.227
90 | RRIRVRPPRLPRPRPRPCVVPRP | 0.0226
91 | RRIRLRPPRLPRPRPRPEIPPRP | -0.0569
